Reference: patent US20140255383A1 (SYNAGEVA BIOPHARMA, published 2014)

Target: Mannose 6-phosphate receptor (M6P receptor) on human MPS IIIB fibroblasts (human)
Assay: cell-based or functional assay

B1: recombinant human N-acetyl-alpha-D-glucosaminidase (rhNaGlu) produced from a transgenic avian (Gallus) (enzyme)
chain: DEAREAAAVRALVARLLGPGPAADFSVSVERALAAKPGLDTYSLGGGGAARVRVRGSTGVAAAAGLHRYLRDFCGCHVAWSGSQLRLPRPLPAVPGELTEATPNRYRYYQNVCTQSYSFVWWDWARWEREIDWMALNGINLALAWSGQEAIWQRVYLALGLTQAEINEFFTGPAFLAWGRMGNLHTWDGPLPPSWHIKQLYLQHRVLDQMRSFGMTPVLPAFAGHVPEAVTRVFPQVNVTKMGSWGHFNCSYSCSFLLAPEDPIFPIIGSLFLRELIKEFGTDHIYGADTFNEMQPPSSEPSYLAAATTAVYEAMTAVDTEAVWLLQGWLFQHQPQFWGPAQIRAVLGAVPRGRLLVLDLFAESQPVYTRTASFQGQPFIWCMLHNFGGNHGLFGALEAVNGGPEAARLFPNSTMVGTGMAPEGISQNEVVYSLMAELGWRKDPVPDLAAWVTSFAARRYGVSHPDAGAAWRLLLRSVYNCSGEACRGHNRSPLVRRPSLQMNTSIWYNRSDVFEAWRLLLTSAPSLATSPAFRYDLLDLTRQAVQELVSLYYEEARSAYLSKELASLLRAGGVLAYELLPALDEVLASDSRFLLGSWLEQARAAAVSEAEADFYEQNSRYQLTLWGPEGNILDYANKQLAGLVANYYTPRWRLFLEALVDSVAQGIPFQQHQFDKNVFQLEQAFVLSKQRYPSQPRGDTVDLAKKIFLKYYPRWVAGSW
modifications: glycosylated; glycans carry mannose-6-phosphate (3.2 moles of M6P per mole of protein), sites not stated
  cellular uptake: NaGlu activity in MPS IIIB fibroblasts treated with 0.3 µg/mL rhNaGlu for 24 hours, against wild-type fibroblasts: ~50 % of wild-type activity
  cellular uptake: NaGlu activity in MPS IIIB fibroblasts treated with 1 µg/mL rhNaGlu for 24 hours, against wild-type fibroblasts: ~4 fold of wild-type activity
  cellular uptake: NaGlu activity in MPS IIIB fibroblasts treated with 30 µg/mL rhNaGlu for 24 hours, against wild-type fibroblasts: ≥ 40 fold of wild-type activity
